In patent US20190382484A1 (Chugai, published 2019) one finds molar binding ratio, binding result and Kd data, which are given here for 13 molecules.

Changes are numbered by the printed parent chain.

Data set [1] addresses T1, antibody-half molecule A1 with PF1H / PF1L-k0 (PF1H-DA303v2/PF1L-k0). Description: SPR (Biacore T200), about 50 RU of half molecule A captured via biotinylated antigen peptide, half molecule B as analyte at 2.5 mg/mL, 25 C (Example 10). The method, then: (§1) The interaction between the obtained antibody-half molecules was analyzed using Biacore (registered trademark) T200. Biotin CAPture Kit, Series S (GE Healthcare) was used for the measurement, and HBS-EP+10X (GE Healthcare) diluted 1/10th was used as a running buffer. The measurement temperature was 25° C. For the sensor chip, Series S Sensor Chip CAP (GE Healthcare) onto which previously-biotinylated antigen peptides were allowed to interact and thereby immobilized was used. These chips were allowed to capture approximately 50 RU of the antibody-half molecule A of interest and then interact with the antibody-half molecule B of interest diluted with the running buffer at 2.5 mg/mL for 180 seconds at a flow rate of 30 μL/min, and measurement was carried out. The molar binding ratio was calculated based on the following Formula 2. The antibody-half molecule A captured on the chip was washed as described in the instructions attached to the kit, and the chip was regenerated and reused.
(§2) At this time, for the antibody-half molecule to be captured, PF1H (SEQ ID NO: 22), which is the H chain variable region portion of the anti-human IL6 receptor antibody described in WO 2009/041621, was used as the H chain variable region portion, PF1L (SEQ ID NO: 23), which is the L chain variable region portion of the anti-human IL6 receptor antibody described in WO 2009/041621, was used as the L chain variable region portion, and k0 was used as the L chain constant region portion. In addition, for the antibody-half molecules used as analytes, IC17H (SEQ ID NO: 24), which is the anti-KLH antibody described in WO 2015/174439, was used as the H chain variable region, IC17L (SEQ ID NO: 25), which is the anti-KLH antibody described in WO 2015/174439, was used as the L chain variable region, and k0 was used as L chain constant region.

The target of data set [2] is T1, antibody-half molecule A1 with PF1H / …. In words: SPR (Biacore T200), about 50 RU of half molecule A captured via biotinylated antigen peptide, half molecule B as analyte at 2.5 mg/mL, 25 C. The method, then:
as §1
as §2, with “the antibody-half molecules to be” for “the antibody-half molecule to be”, “used as the L chain” for “used as L chain”
In general terms: In SPR one partner is held on a chip, and binding of the other changes the refractive index at the surface.

Data set [3] has as its target antibody-half molecule A2 with PF1H / PF1L-k0 (PF1H-DA402v2/PF1L-k0). Described as above. On the procedure:
as §1
as §2, with “the antibody-half molecules to be” for “the antibody-half molecule to be”, “used as the L chain” for “used as L chain”

Data set [4] addresses antibody-half molecule A6 with PF1H / PF1L-k0 (PF1H-DA303v2.n.n/PF1L-k0). Description: SPR (Biacore T200), about 50 RU of half molecule A captured via biotinylated antigen peptide, half molecule B as analyte at 2.5 mg/mL, 25 C (Example 10). On the procedure: as §1, §2
Data set [5] addresses antibody-half molecule A3 with PF1H / PF1L-k0 (PF1H-DA405v2/PF1L-k0). Description: SPR (Biacore T200), about 50 RU of half molecule A captured via biotinylated antigen peptide, half molecule B as analyte at 2.5 mg/mL, 25 C. On the procedure: as §1
as §2, with “the antibody-half molecules to be” for “the antibody-half molecule to be”, “used as the L chain” for “used as L chain”

For data set [6], the target named is antibody-half molecule A5 with PF1H / PF1L-k0 (PF1H-DA430v2/PF1L-k0). The data set is described as above. The method, then:
as §1
as §2, with “the antibody-half molecules to be” for “the antibody-half molecule to be”, “used as the L chain” for “used as L chain”

Data set [7] addresses antibody-half molecule A7 with PF1H / PF1L-k0 (PF1H-DA303v2.n.HATF.B/PF1L-k0). In words: SPR (Biacore T200), about 50 RU of half molecule A captured via biotinylated antigen peptide, half molecule B as analyte at 2.5 mg/mL, 25 C (Example 10). On the procedure:
as §1, §2

Data set [8] concerns the target antibody-half molecule A4 with PF1H / PF1L-k0 (PF1H-DA424v2/PF1L-k0). Description: SPR (Biacore T200), about 50 RU of half molecule A captured via biotinylated antigen peptide, half molecule B as analyte at 2.5 mg/mL, 25 C. The method, then:
as §1
as §2, with “the antibody-half molecules to be” for “the antibody-half molecule to be”, “used as the L chain” for “used as L chain”

Data set [9] concerns the molecule itself. In words: size exclusion chromatography (G3000SWXL), absorbance 280 nm; self-association of the half molecule [panel b].
Protocol: The protein concentration of the antibody-half molecules was 0.25 mg/mL, and 80 μL was injected.
Evaluation of the molecular weight of the prepared antibody-half molecules A and B was carried out by size exclusion chromatography.
In data set [10] the target is T2, FcγRIIIa extracellular domain (UniProt P08637 17-208, limits assumed).
T2 construct: extracellular domain; Purified over HisTrap, so a His tag is implied
T2 sequence (P08637 17-208 limits assumed): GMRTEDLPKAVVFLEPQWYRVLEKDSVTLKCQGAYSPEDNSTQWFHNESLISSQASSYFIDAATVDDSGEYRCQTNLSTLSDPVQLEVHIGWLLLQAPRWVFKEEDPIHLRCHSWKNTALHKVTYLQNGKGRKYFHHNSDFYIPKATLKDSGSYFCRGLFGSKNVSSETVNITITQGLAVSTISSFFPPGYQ
In words: SPR (Biacore T200), mixed half molecules captured via biotinylated antigen peptide on CAP chip, FcγR as analyte, 25 C. The method, then:
Interaction analysis of antibody-half molecules of interest and FcγR was performed using Biacore (registered trademark) T200. Biotin CAPture Kit, Series S (GE Healthcare) was used for the measurement, and HBS-EP+10X (GE Healthcare) diluted 1/10th was used as a running buffer. The measurement temperature was 25° C. For the sensor chip, Series S Sensor Chip CAP (GE Healthcare) onto which previously-biotinylated antigen peptides were allowed to interact and thereby immobilized was used. These chips were allowed to capture the antibody-half molecules of interest and then interact with FcγR diluted with the running buffer. The antigens and antibody-half molecules captured on the chip were washed as described in the instructions attached to the kit, and the chips were regenerated and reused.

B1: antibody-half molecule B1 with IC17H / IC17L-k0 (IC17H-DB220v2/IC17L-k0) (antibody, human IgG1, kappa)
heavy: QVQLQQSGPQLVRPGASVKISCKASGYSFTSYWMHWVNQRPGQGLEWIGMIDPSYSETRLNQKFKDKATLTVDKSSSTAYMQLSSPTSEDSAVYYCALYGNYFDYWGQGTTLTVSSASTKGPSVFPLAPSSKSTSGGTAALGCLVKDYFPEPVTVSWNSGALTSGVHTFPAVLQSSGLYSLSSVVTVPSSSLGTQTYICNVNHKPSNTKVDKKVEPKSCDKTHTSPPSPAPELLGGPSVFLFPPKPKDTLMISRTPEVTCVVVDVSHEEPEVKFNWYVDGVEVHNAKTKPREEQYNSTYRVVSVLTVLHQDWLNGKEYKCKVSNDALPMPIEETISKAKGQPREPQVYTLPPSRDELTKNQVSLTCLVKGFYPSDIAVEWESNGQPENNYKTTPPYLDSDGSFFLYSDLTVDKSRWQQGNVFSCSVMHEALHNHYTQESLSLSP
light: DIQMTQSSSSFSVSLGDRVTITCKASEDIYNRLAWYQQKPGNAPRLLISGATSLETGVPSRFSGSGSGKDYTLSITSLQTEDVATYYCQQYWSTPYTFGGGTKLEVKRTVAAPSVFIFPPSDEQLKSGTASVVCLLNNFYPREAKVQWKVDNALQSGNSQESVTEQDSKDSTYSLSSTLTLSKADYEKHKVYACEVTHQGLSSPVTKSFNRGEC
Consider B1, for which the molar binding ratio in [1] turned out to be 0.54; in [2], 0.38.

B2: antibody-half molecule B2 with IC17H / IC17L-k0 (IC17H-DB402v2/IC17L-k0) (antibody, human IgG1, kappa)
heavy: B1 heavy with D408H
light: B1 light
B2: the molar binding ratio in [3] amounted to 0.63.

B3: antibody-half molecule B6 with IC17H / IC17L-k0 (IC17H-DB220v2.n.n/IC17L-k0) (antibody, human IgG1, kappa)
heavy: B1 heavy with E438K
light: B1 light
Regarding B3, in [4], the molar binding ratio came to 0.42.

B4: antibody-half molecule B3 with IC17H / IC17L-k0 (IC17H-DB405v2/IC17L-k0) (antibody, human IgG1, kappa)
heavy: B1 heavy with D408T
light: B1 light
Regarding B4, the molar binding ratio in data set [5] came out at 0.54.

B5: antibody-half molecule B5 with IC17H / IC17L-k0 (IC17H-DB430v2/IC17L-k0) (antibody, human IgG1, kappa)
heavy: B1 heavy with E356L
light: B1 light
Turning to B5, the molar binding ratio in data set [6] worked out at 0.27.

B6: antibody-half molecule B7 with IC17H / IC17L-k0 (IC17H-DB220v2.n.HATF.A/IC17L-k0) (antibody, human IgG1, kappa)
heavy: B1 heavy with S363H, F404A, E438K
light: B1 light
For the molecule B6, the molar binding ratio in data set [7] amounted to 0.32.

B7: antibody-half molecule B4 with IC17H / IC17L-k0 (IC17H-DB424v2/IC17L-k0) (antibody, human IgG1, kappa)
heavy: B1 heavy with E356N
light: B1 light
Turning to B7, the molar binding ratio in data set [8] amounted to 0.25.

B8: EGLVH-wtIgG4C4/EGLVL-k0 (antibody, V domains shown)
VH: QDQLVQSGAEVKKPGASVKVSCKASGFNIKDTYIQWVRQAPGQGLEWMGRIDPLRKQTKYREKFEGRVTITADTSTNTAYMELSSLRSEDTAVYYCVRSGREFDYWGQGTLVTVSS
VL: DIQMTQSPSSLSASVGDRVTITCRASQDIHKYIAWYQQKPGQAPRLLIQYTSTLQPGVPSRFSGSGSGTDYTFTISSLQPEDIATYYCLQYEQLRTFGGGTKVEIKR
notes: also called control of the half molecule state of antibody
Turning to B8, the binding result in [9] is recorded as “no binding (tested: 0.25 mg/mL injected)”.

B9: MRAH-DA303v2/MRAL-k0 + MRAH-DB220v2/MRAL-k0 (antibody, human IgG1, kappa)
heavy 1: QVQLQESGPGLVRPSQTLSLTCTVSGYSITSDHAWSWVRQPPGRGLEWIGYISYSGITTYNPSLKSRVTMLRDTSKNQFSLRLSSVTAADTAVYYCARSLARTTAMDYWGQGSLVTVSSASTKGPSVFPLAPSSKSTSGGTAALGCLVKDYFPEPVTVSWNSGALTSGVHTFPAVLQSSGLYSLSSVVTVPSSSLGTQTYICNVNHKPSNTKVDKKVEPKSCDKTHTSPPSPAPEYQWGPMVFLFPPKPKDTLMISRTPEVTCVVVDVSDEEPEVKFNWYVDGVEVHNAKTKPREEQYNATYRVVSVLTVLHQDWLNGKEYKCKVSNKALPAPIEKTISKAKGQPREPQVYTLPPSRKELTKNQVSLTCLVKGFYPSDIAVEWESNGQPENNYKTTPPYLDSDGSFFLYSDLTVDKSRWQQGNVFSCSVMHEALHNHYTQKSLSLSP
heavy 2: QVQLQESGPGLVRPSQTLSLTCTVSGYSITSDHAWSWVRQPPGRGLEWIGYISYSGITTYNPSLKSRVTMLRDTSKNQFSLRLSSVTAADTAVYYCARSLARTTAMDYWGQGSLVTVSSASTKGPSVFPLAPSSKSTSGGTAALGCLVKDYFPEPVTVSWNSGALTSGVHTFPAVLQSSGLYSLSSVVTVPSSSLGTQTYICNVNHKPSNTKVDKKVEPKSCDKTHTSPPSPAPELLGGPSVFLFPPKPKDTLMISRTPEVTCVVVDVSHEEPEVKFNWYVDGVEVHNAKTKPREEQYNSTYRVVSVLTVLHQDWLNGKEYKCKVSNDALPMPIEETISKAKGQPREPQVYTLPPSRDELTKNQVSLTCLVKGFYPSDIAVEWESNGQPENNYKTTPPYLDSDGSFFLYSDLTVDKSRWQQGNVFSCSVMHEALHNHYTQESLSLSP
light: not shown
notes: Mixture of the two antibody-half molecules, which form a non-covalent heterodimer when captured on antigen; also called A1 + B1
Take B9: the affinity in data set [10], expressed as Kd, was 6.1 nM.

B10: MRAH-DA430v2/MRAL-k0 + MRAH-DB430v2/MRAL-k0 (antibody, human IgG1, kappa)
heavy 1: B9 heavy 1 with E359L
heavy 2: B9 heavy 2 with E359L
light: not shown
notes: Mixture of the two antibody-half molecules, which form a non-covalent heterodimer when captured on antigen; also called A5 + B5
B10 gave a Kd in data set [10] of 53 nM.

B11: MRAH-DA405v2/MRAL-k0 + MRAH-DB405v2/MRAL-k0 (antibody, human IgG1, kappa)
heavy 1: B9 heavy 1 with D411T
heavy 2: B9 heavy 2 with D411T
light: not shown
notes: Mixture of the two antibody-half molecules, which form a non-covalent heterodimer when captured on antigen; also called A3 + B3
B11 came in with a dissociation constant (Kd) in data set [10] of 1.2 nM.

B12: MRAH-DA402v2/MRAL-k0 + MRAH-DB402v2/MRAL-k0 (antibody, human IgG1, kappa)
heavy 1: B9 heavy 1 with D411H
heavy 2: B9 heavy 2 with D411H
light: not shown
notes: Mixture of the two antibody-half molecules, which form a non-covalent heterodimer when captured on antigen; also called A2 + B2
In [10], B12 had a dissociation constant (Kd) of 0.95 nM.

B13: MRAH-DA424v2/MRAL-k0 + MRAH-DB424v2/MRAL-k0 (antibody, human IgG1, kappa)
heavy 1: B9 heavy 1 with E359N
heavy 2: B9 heavy 2 with E359N
light: not shown
notes: Mixture of the two antibody-half molecules, which form a non-covalent heterodimer when captured on antigen; also called A4 + B4
In data set [10], B13 came in with a Kd of 10 nM. Against the preceding molecule, the Kd is about 11-fold higher.

In general, Kd refers to the free concentration of one partner at which half of the binding sites on the other are occupied at equilibrium, for simple one-to-one binding. Lower therefore signals tighter binding.
